Numbering of substitutions follows the chain as printed. Like-named read-outs stand apart in the source and are kept apart here.
Assays:
[1] = target: T1, recombinant human IL-17A (produced in HEK cells, Proteintech HZ-1113) (human, UniProt Q16552 24-155); test: cell-based or functional assay
[2] = target: T2, recombinant human IL-17F (produced in HEK cells, Proteintech HZ-1116) (human, UniProt Q96PD4 31-163); test: cell-based or functional assay
T2 sequence (looked up): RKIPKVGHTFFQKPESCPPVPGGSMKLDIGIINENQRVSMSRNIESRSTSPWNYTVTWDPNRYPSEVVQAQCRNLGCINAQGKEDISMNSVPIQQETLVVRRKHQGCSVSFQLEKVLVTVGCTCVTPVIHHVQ

[3] = target: recombinant human IL-17A/F (produced in CHO cells, R&D Systems 5837-IL) (human, UniProt Q16552 24-155; Q96PD4 31-163, limits assumed); test: cell-based or functional assay
[4] = target: T2, recombinant human IL-17F (produced in …); test: cell-based or functional assay; remark: listed apart in the source
[5] = target: T3, human IL-17A with C-terminal Avi-tag, biotinylated, immobilized on BLI sensors (human, UniProt Q16552 24-155, biotin on the C-terminal Avi-tag (BirA)); test: BLI, biotinylated IL-17A immobilized, monovalent VHH as analyte; 2:1 heterogenous model, high affinity component
T3 construct: also called biotinylated IL-17A; not shown: C-terminal Avi-tag

[6] = target: T4, human IL-17F with C-terminal Avi-tag, biotinylated, immobilized on BLI sensors (human, UniProt Q96PD4 31-163, biotin on the C-terminal Avi-tag (BirA)); test: BLI, biotinylated IL-17F immobilized, monovalent VHH as analyte; 2:1 heterogenous model, high affinity component
T4 construct: also called biotinylated IL-17F; not shown: C-terminal Avi-tag
T4 sequence: T2 sequence (looked up)

[7] = target: T3, human IL-17A with C-terminal Avi-tag, …; test: BLI, biotinylated IL-17A immobilized on streptavidin sensors, monovalent VHH as analyte (20, 100 nM), 2:1 heterogenous fit, low affinity component
[8] = target: T4, human IL-17F with C-terminal Avi-tag, …; test: BLI, biotinylated IL-17F immobilized on streptavidin sensors, monovalent VHH as analyte (20, 100 nM), 2:1 heterogenous fit, low affinity component
[9] = target: T3, human IL-17A with C-terminal Avi-tag, …; test: BLI, biotinylated IL-17A immobilized on streptavidin sensors, monovalent VHH as analyte (25, 50, 100 nM), 2:1 heterogenous fit, high affinity component
[10] = target: T5, human IL-17A homodimer, bacterially expressed construct (residues 40-155 with GSEDS spacer) (human, UniProt Q16552 40-155); test: BLI, VHH immobilized, IL-17 as analyte; apparent KD with avidity; µM as printed (Table 3 uses pM)
T5 chain: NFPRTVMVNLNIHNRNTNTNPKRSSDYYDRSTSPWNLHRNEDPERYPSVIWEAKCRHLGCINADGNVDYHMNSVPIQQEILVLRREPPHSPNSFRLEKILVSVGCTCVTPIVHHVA

[11] = target: T6, human IL-17F homodimer, bacterially expressed construct (residues 39-163 with GSEGE linker) (human, UniProt Q96PD4 39-163); test: as above
T6 construct: also called IL-17F dimer
T6 chain: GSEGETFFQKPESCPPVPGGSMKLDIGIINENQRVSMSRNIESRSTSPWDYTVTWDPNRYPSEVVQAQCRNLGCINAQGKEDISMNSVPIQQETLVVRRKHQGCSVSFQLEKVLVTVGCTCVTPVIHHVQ

[12] = target: T7, human IL-17A/F heterodimer, bacterially expressed construct (human, UniProt Q16552 40-155; Q96PD4 39-163, limits assumed); test: as above
T7 construct: IL-17A unit with N68D, IL-17F unit with N83D and C137S, both with GSEDS spacer; already in the entries

[13] = target: T5, human IL-17A homodimer, bacterially …; test: BLI, biotinylated VHH immobilized on streptavidin sensors, IL-17 as analyte (10, 20, 40 nM), mass transport fit; apparent value, avidity possible
[14] = target: T6, human IL-17F homodimer, bacterially …; test: as above
[15] = target: T7, human IL-17A/F heterodimer, bacterially …; test: as above
[16] = target: T2, recombinant human IL-17F (produced in …); test: cell-based or functional assay; remark: listed apart in the source
[17] = target: T3, human IL-17A with C-terminal Avi-tag, …; test: BLI, biotinylated IL-17A immobilized on streptavidin sensors, monovalent VHH as analyte (25, 50, 100 nM), mass transport fit
[18] = target: T5, human IL-17A homodimer, bacterially …; test: BLI, biotinylated VHH immobilized on streptavidin sensors, IL-17 as analyte (10, 20, 40 nM), mass transport fit; apparent value, avidity possible
[19] = target: T6, human IL-17F homodimer, bacterially …; test: as above
[20] = target: T7, human IL-17A/F heterodimer, bacterially …; test: as above; remark: listed apart in the source
[21] = target: T1, recombinant human IL-17A (produced in …); test: cell-based or functional assay; remark: listed apart in the source
[22] = target: T3, human IL-17A with C-terminal Avi-tag, …; test: BLI, biotinylated IL-17A immobilized, monovalent VHH as analyte
[23] = target: T4, human IL-17F with C-terminal Avi-tag, …; test: BLI, biotinylated IL-17F immobilized, monovalent VHH as analyte

recombinant human IL-17A/F (produced in CHO cells, R&D Systems 5837-IL), sequence (Q16552 24-155 limits assumed, chain 1 of 2, one chain of several): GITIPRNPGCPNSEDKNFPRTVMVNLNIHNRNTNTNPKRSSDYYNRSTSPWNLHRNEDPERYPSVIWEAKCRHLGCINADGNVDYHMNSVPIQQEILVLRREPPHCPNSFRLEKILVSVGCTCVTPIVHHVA

B1: Re42F08 (VHH)
VHH: QVQLVESGGGLVKAGGSLRLSCVVSGHTSEISAMGWYRQAPGKQRELVALITSRSGDTHYSDSVKGRFSISRDNAKNTMYLQMNSLNPDDTAVYYCVHNEPGHLYMAQGTQVTVSS
notes: Class B, first generation
[1]
  Neutralization potency, ranking from 1 = the best to 4 (HEK-Blue IL-17 reporter cells): 2 rank
[2]
  Neutralization potency, ranking from 1 = the best to 4 (HEK-Blue IL-17 reporter cells): 4 rank
[3]
  Neutralization potency, ranking from 1 = the best to 4 (HEK-Blue IL-17 reporter cells): 3 rank
[4]
  IC50 (read off the curve), SEAP reporter, HEK-Blue IL-17 cells, 0.85 nM IL-17F: ~5 nM
[5]
  Kd: 1 nM
[6]
  Kd: 6 nM
[7]
  KD2: 60 nM
[8]
  KD2: 60 nM
[9]
  Kd: 1 nM

B2: Bm17B02 with C-terminal Avi-Biotin-tag, biotinylated (VHH)
VHH: B1 VHH with K13N, A14T
modifications: biotin on the C-terminal Avi-tag (BirA)
notes: not shown: C-terminal Avi-Biotin-tag
[10]
  Kd: ≤ 20000 nM
[11]
  Kd: ≤ 20000 nM
[12]
  Kd: ≤ 20000 nM
[13]
  Kd: ≤ 0.01 nM
  koff: ≤ 1e-07 s⁻¹
  kon: 220000 M⁻¹ s⁻¹
[14]
  Kd: 0.02 nM
  koff: 5.4e-05 s⁻¹
  kon: 750000 M⁻¹ s⁻¹
[15]
  Kd: ≤ 0.01 nM
  koff: ≤ 1e-07 s⁻¹
  kon: 1.4e+06 M⁻¹ s⁻¹

B3: Bm17B02 (VHH)
VHH: B1 VHH with K13N, A14T
notes: Class B, first generation; For the crystal it was made with a His14-ScSUMO tag that was cleaved off
[9]
  Kd: 0.7 nM

B4: Re42F08 with C-terminal Avi-Biotin-tag, biotinylated (VHH)
VHH: B1 VHH
modifications: biotin on the C-terminal Avi-tag (BirA)
notes: as for B2
[10]
  Kd: ≤ 20000 nM
[11]
  Kd: ≤ 20000 nM
[12]
  Kd: ≤ 20000 nM
[13]
  Kd: ≤ 0.01 nM
  koff: ≤ 1e-07 s⁻¹
  kon: 160000 M⁻¹ s⁻¹
[14]
  Kd: 0.02 nM
  koff: ≤ 1e-07 s⁻¹
  kon: 500000 M⁻¹ s⁻¹
[15]
  Kd: ≤ 0.01 nM
  koff: ≤ 1e-07 s⁻¹
  kon: 510000 M⁻¹ s⁻¹

B5: Bm44B04 (VHH)
VHH: QVQLVESGGGLVRTGGSLRLSCSVSGDISSQSAMGWYRQVPGRQRELVAMIHTTKGDTYYADSVKGRFTISRINANNTIYLQMNNLKPEDTAIYYCTHNEPGDLYMGQGTQVTVSS
notes: Class B, second generation
[1]
  Neutralization potency, ranking from 1 = the best to 4 (HEK-Blue IL-17 reporter cells): 2 rank
[2]
  Neutralization potency, ranking from 1 = the best to 4 (HEK-Blue IL-17 reporter cells): 2 rank
[3]
  Neutralization potency, ranking from 1 = the best to 4 (HEK-Blue IL-17 reporter cells): 1 rank
[5]
  Kd: 0.6 nM
[6]
  Kd: 0.35 nM
[7]
  KD2: 25 nM
[8]
  KD2: 20 nM

B6: Bm44G07 (VHH)
VHH: B5 VHH with E6Q, R13Q, G66D, Y80H
notes: Class B, second generation
[1]
  Neutralization potency, ranking from 1 = the best to 4 (HEK-Blue IL-17 reporter cells): 3 rank
[2]
  Neutralization potency, ranking from 1 = the best to 4 (HEK-Blue IL-17 reporter cells): 1 rank
[3]
  Neutralization potency, ranking from 1 = the best to 4 (HEK-Blue IL-17 reporter cells): 4 rank
[5]
  Kd: 3 nM
[6]
  Kd: 1 nM
[7]
  KD2: 120 nM
[8]
  KD2: 40 nM

B7: Bm18F11 (VHH)
VHH: QVQLVESGGDLVQAGGSLRLSCAASGLTGSSYAMGWFRQAPGKEREFVAAISWISGDTKYTDSVKGRFTMSRDNAKKQVYLEMNSLKPEDTAVYYCNDMPYGLDTRMDEYVYWGQGTQVTVSS
notes: Class A, first generation
[16]
  IC50 (read off the curve), SEAP reporter, HEK-Blue IL-17 cells, 0.85 nM IL-17F: ~5 nM
[17]
  Kd: 1 nM

B8: Bm18F11 with C-terminal Avi-Biotin-tag, biotinylated (VHH)
VHH: B7 VHH
modifications: biotin on the C-terminal Avi-tag (BirA)
notes: as for B2
[10]
  Kd: ≤ 20000 nM
[11]
  Kd: ≤ 20000 nM
[12]
  Kd: ≤ 20000 nM
[18]
  Kd: ≤ 0.01 nM
  koff: ≤ 1e-07 s⁻¹
  kon: 95000 M⁻¹ s⁻¹
[19]
  Kd: ≤ 0.01 nM
  koff: ≤ 1e-07 s⁻¹
  kon: 150000 M⁻¹ s⁻¹
[20]
  Kd: ≤ 0.01 nM
  koff: ≤ 1e-07 s⁻¹
  kon: 280000 M⁻¹ s⁻¹

B9: Bm44C09 (VHH)
VHH: B7 VHH with D10G, T28A, G29V, D57G, T61A, G66D, E109D, V111K, T117I
notes: Class A, second generation
[1]
  Neutralization potency, ranking from 1 = the best to 4 (HEK-Blue IL-17 reporter cells): 4 rank
[2]
  Neutralization potency, ranking from 1 = the best to 4 (HEK-Blue IL-17 reporter cells): 1 rank
[3]
  Neutralization potency, ranking from 1 = the best to 4 (HEK-Blue IL-17 reporter cells): 1 rank
[21]
  IC50 (read off the curve), SEAP reporter, HEK-Blue IL-17 cells, 0.17 nM IL-17A: ~2 nM
[22]
  Kd: 2 nM
[23]
  Kd: 0.1 nM

B10: Bm18B05 with C-terminal Avi-Biotin-tag, biotinylated (VHH)
VHH: QVQLVESGGGLVQPGGSLRLSCAVSGRTFSSYAMGWFRRPPGKEREFVAAISWSGGDTKYADFVTDRFTISRDDAKSTVYLQMNSLKPEDTAVYYCNDMPYGLDTRMDEYEYWGQGTQVTVSS
modifications: biotin on the C-terminal Avi-tag (BirA)
notes: as for B2
[10]
  Kd: ≤ 20000 nM
[11]
  Kd: ≤ 20000 nM
[12]
  Kd: ≤ 20000 nM
[18]
  Kd: ≤ 0.01 nM
  koff: ≤ 1e-07 s⁻¹
  kon: 260000 M⁻¹ s⁻¹
[19]
  Kd: ≤ 0.01 nM
  koff: ≤ 1e-07 s⁻¹
  kon: 86000 M⁻¹ s⁻¹
[20]
  Kd: ≤ 0.01 nM
  koff: ≤ 1e-07 s⁻¹
  kon: 120000 M⁻¹ s⁻¹
